Usually Kd stands for a measure of binding affinity in units of concentration. Low readings indicate a tighter complex, high ones a looser complex.

The assay deals with DNA processing protein A (DprA) from Helicobacter pylori strain J99 (Helicobacter pylori strain J99) (UniProt B5ZAA1). Briefly: SPR; Biacore 3000; DprA immobilised on a CM5 chip (~500 RU), HP0935 passed over at varying concentrations; 50 mM Tris-Cl pH 7.4, 25 °C, 20 μl/min, 300 s dissociation; Langmuir binding fit.

In the case of “HP0935, N-acetyltransferase domain-containing protein (GNAT superfamily protein acetyltransferase) from Helicobacter pylori strain 26695 (from UniProt O25589 2-161) (enzyme)”, the Kd is 3.28 µM.

(Values after PMC12273574, “Biochemical and structural characterization of a GNAT superfamily protein acetyltransferase from Helicobacter pylori” (The Journal of Biological Chemistry, 2025).)
